Source: patent US20220306762A1

Assays:
[1] = biological target: His-tagged human CD38 (ACRO Biosystems CD8-H5224) (human) (UniProt P28907); assay: SPR (second run), His-tagged CD38
[2] = biological target: CD38 on Daudi target cells (UniProt P28907); assay: cell-based or functional assay
[3] = biological target: His-tagged human CD38 (ACRO Biosystems cat #CD8-H5224) (human) (UniProt P28907); assay: SPR (Carterra LSA), antibody captured by anti-human Fc, His-tagged CD38 injected
[4] = biological target: His-tagged human CD38 (ACRO Biosystems cat #CD8-H5224) (human) (UniProt P28907); assay: SPR (Carterra LSA), His-CD38 analyte

Kd [1] [nM] | ADCC EC50 [2] [ng/mL] | Lowest Remaining Target % [2] [%] | Max RLU [2] [RLU] | PBMC ADCC EC50 [2] [ng/mL] | Kd [3] [nM] | Kd [4] [nM] | Substance
37.1 | – | – | – | – | – | – | Dara Benchmark (antibody)
– | 68.2 | 57 | 2.47e+06 | 0.0983 | – | – | Daratumumab (benchmark) (antibody)
5.8 | 12.3 | – | 3.16e+06 | 0.0406 | 5.8 | 2.69 | Isa Benchmark (antibody)
